Source: patent US20160287696A1, “PAN POLLEN IMMUNOGENS AND METHODS AND USES FOR IMMUNE RESPONSE MODULATION” (LA JOLLA INSTITUTE FOR ALLERGY AND IMMUNOLOGY, priority 2013, published 2016)

B1: NTGA 9: Phl p wild type sequence, Table 2 (protein)
chain: MAQLQETYACSPATERGRGILLGGDAKTDTIVYCAGRTVFFRRLDAPLDAWTYTEHAYPTTVARISPNGEWVASADVSGCVRVWGRNGDRALKAEFRPISGRVDDLRWSPDGLRIVVSGDGKGKSLVRAFMWDSGSTVGDFDGHSKRVLSCDFKPTRPFRIVTCGEDFLANYYEGPPFKFKHSIRDHSNFVNCIRYSPDGSKFITVSSDKRGLIYDGKTGDKIGELSSEDSHTGSIYAVSWSADSKQVLTVSADKTAKVWDIMEDASGKVNRTLVCTGIGGVDDMLVGCLWQNDHLVTVSLGGTFNVFSASNPDKEPVSFAGHLKTVSSLTYFPQSNPRTMLSTSYDGVIIRWIQGVGYGGRLIRKNNTQIKCFVAAEEELITSGYDNMVFRIPLNGDQCGDAESVDVGGQPNALNIAVQQPEFALITTDSAIVLLHKSTVTSTTKVSYTITSSAVSPDGTEAIVGAQDGKLRIYSISGDTLTEEAVLERHRGAITSIHYSPDVSMFASADANREAVAWDRATREIKLKNMLFHTARINCLAWSPDSRLVATGSIDTCAIIYDVDKPASSRITIKGAHLGGVHGLTFADNDTLVTAGEDACVRVWKLV
modifications: Phleum Pratense
B2: NTGA 26: Phl p wild type sequence, Table 2 (protein)
chain: GVFTDKDKAAAHMKGGAKKVVISAPSKDAPMFVVGVNEDKYTSDVNIVSNASCTTNCLAPLAKIINDNFGIVEGLMTTVHSITATQKTVDGPSSKDWRGGRAASFNIIPSSTGAAKAVGKVLPELNGKLTGMSFRVPTVDVSVVDLTVRIEKAASYEDIKKAIKAASEGNLKGIMGYVEEDLVSTDFIGDSRSSIFDAKAGIALNDNFVKLVSWYDNEWGY
modifications: Phleum Pratense
B3: NTGA 32: Phl p wild type sequence, Table 2 (protein)
chain: MAPIKIGINGFGRIGRLVARVALQCPDVELVAVNDPFITTDYMTYMFKYDTVHGQWKHHDVKVKDAKTLLFGEKEVAVFGCRNPEEIPWGAAGADYVVESTGVFTDKDKAAAHIKGGAKKVIISAPSKDAPMFVCGVNEKEYTSDITIVSNASCTTNCLAPLAKVINDRFGIVEGLMTTVHAMTATQKTVDGPSSKDWRGGRAASFNIIPSSTGAAKAVGKVLPVLNGKLTGMAFRVPTVDVSVVDLTVRLEKAATYEQIKAAIKEESEGNLKGILGYVDEDLVSTDFQGDSRSSIFDAKAGIALNDNFVKLVSWYDNEWGYSTRVVDLIRHIHATK
modifications: Phleum Pratense
B4: NTGA 4: Phl p wild type sequence, Table 2 (protein)
chain: YIKLMKTIFDFESIKKLLASPKFSFCFDGLHGVAGAYAKRMFVDELGASESSLLNCVPKEDFGGGHPDPNLTYAKELVERMGLGKSSSNVEPPEFGAAADGDADRNMVLGKRFFVTPSDSVAIIAANAVQSIPYFASGLKGVARSMPTSAALDVVAKNLNLKFFEVPTGWKFFGNLMDAGMCSVCGEESFGTGSDHIREKDGIWAVLAWLSIIAYKNKDNLGGDKLVSVEDIVLQHWATYGRHYYTRYDYENVDAEAAKELMANLVKMQSALSDVNKLIKEIQPDVAEVVSADEFEYKDPVDGSVSKHQGIRYLFGDGSRLVFRLSGTGSVGATIRIYIEQYEKDSSKTGRESSDALSPLVDVALKLSKIKEYTGRSAPTVIT
modifications: Phleum Pratense
B5: NTGA 30: Phl p wild type sequence, Table 2 (protein)
chain: MAGGGVEDVYGEDRATEEQFVTPWSFSVASGHSLLRDPRHNKGLAFSEAERDAHYLRGLLPPAIVSQEHQEKKIMHNLRQYTVPLQRYIAMMDLQERNERLFYKLLIDNVEELLPVVYTPVVGEACQKYGSIYRRPQGLYISLKDKGKVLEVLKNWPERSIQVIVVTDGERILGLGDLGCQGMGIPVGKLSLYTALGGVRPSACLPITIDVGTNNQTLLDDEYYIGLKQRRATGEEYHELLQEFMNAVKQNYGEKVLVQFEDFANHNAFDLLAKYSKSHLVFNDDIQGTASVVLAGLLAALKVIGGGLADQTYLFLGAGEAGTGIAELIALEMSKHTDLPLDDCRKKIWLVDSKGLLVESRKESLQHFKKPFAHEHEPLTTLLEAVQSLKPTVLIGTSGVGKTFTQEVVEAMASFNEKPVIFSLSNPTSHSECTAEEAYTWTKGTAVFASGSPFDPVEYEGKTYVPGQSNNAYVFPGFGLGVVISGAIRVHDDMLLAASEALAEQVSQENFDKGLIFPPFTNIRKISANIAAKVAAKAYDLGLASRLPRPDDLVKYAESCMYTPLYRSYR
modifications: Phleum Pratense
B6: NTGA 11: Phl p wild type sequence, Table 2 (protein)
chain: MATSWTLPDHPTLPKGKTVAVIVLDGWGEASADQYNCIHRAETPVMDSLKNGAPEKWTLVKAHGTAVGLPSDDDMGNSEVGHNALGAGRIFAQGAKLVDAALASGKIWEAEGFNYIKESFAEGTLHLIGLLSDGGVHSRLDQVQLLVKGASERGAKRIRLHILTDGRDVLDGSSVGFVETLENDLAQLREKGVDAQVASGGGRMYVTMDRYENDWDVVKRGWDAQVLGEAPYKFKSALEAVKTLRAEPKANDQYLPAFVIVDESGKSVGPIVDGDAVVTFNFRADRMVMLAKALEFADFDKFDRVRVPKIKYAGMLQYDGELKLPNKFLVSPPLIERTSGEYLVKNGVRTFACSETVKFGHVTFFWNGNRSGYFDETKEEYIEIPSDSGITFNEQPKMKALEIAEKTRDAILSGKFDQVRINLPNGDMVGHTGDIEATVVACKAADEAVKIVLDAVEQVGGIYLVTADHGNAEDMVKRNKSGQPALDKSGSIQILTSHTLQPVPVAIGGPGLHPGVKFRSDINTPGLANVAATVMNLHGFQAPDDYETTLIEVAD
modifications: Phleum Pratense
B7: NTGA 10: Phl p wild type sequence, Table 2 (protein)
chain: MVFSVTKKDTKPFDGQKPGTSGLRKKVTVFQQPHYLANFVQSTFNALPADQVKGATIVVSGDGRYFSKDAVQIITKMAAANGVRRVWVGQDSLLSTPAVSAIIRERIAADGSKATGAFILTASHNPGGPTEDFGIKYNMGNGGPAPESVTDKIFSNTTTITEYLIAEDLPDVDISALGVTTFTGPEGPFDVDVFDSATDYIKLMKTIFDFESIKKLLASPKFSFCFDGLHGVAGAYAKRMFVDELGASESSLLNCVPKEDFGGGHPDPNLTYAKELVERMGLGKSSSNVEPPEFGAAADGDADRNMVLGKRFFVTPSDSVAIIAANAVQSIPYFASGLKGVARSMPTSAALDVVAKNLNLKFFEVPTGWKFFGNLMDAGMCSVCGEESFGTGSDHIREKDGIWAVLAWLSIIAYKNKDNLGGDKLVSVEDIVLQHWATYGRHYYTRYDYENVDAEAAKELMANLVKMQSALSDVNKLIKEIQPDVAEVVSADEFEYKDPVDGSVSKHQGIRYLFGDGSRLVFRLSGTGSVGATIRIYIEQYEKDSSKTGRESSDALSPLVDVALKLSKIKEYTGRSAPTVIT
modifications: Phleum Pratense
B8: NTGA 29: Phl p wild type sequence, Table 2 (protein)
chain: MASEKHFKYVILGGGVAAGYAAREFAKQGVQPGELAIISKESVAPYERPALSKGYLFPQNAARLPGFHTCVGSGGEKLLPEWYTEKGIELILSTEIVKADLASKTLTSAAGATFTYETLLIATGSSTIKLTDFGVQGAEANNILYLRDINDADKLVAAMQAKKDGKAVVVGGGYIGLELSAALKLNNFDVTMVYPEPWCMPRLFTAGIAHFYEGYYASKGINIVKGTVASGFDADANGDVAVVKLKDGRVLDANIVIVGVGGRPLTGLFKGQVDEEKGGLKTDTFFETSVAGVYAIGDVASFPMKLYNEPRRVEHVDHARKSAEQAVKAIKAKESGETVAEYDYLPYFYSRSFDIAWQFYGDNVGESVLFGDNDPAAAKAKFGTYWVKDGKVVGVFLEGGSADENQAIAKVARAQPLVAANLGELGKEGLDFAAKI
modifications: Phleum Pratense

Tested on: cultured PBMCs of the allergic donors
Assay: ELISPOT of IL-5 or IFNg production by cultured PBMCs of TG allergic donors in response to peptide
Type: cell-based, human
Settings: for NTGA's containing at least one T cell epitope, Th+ (Col 2): NTGA number given = criterion met, TG allergic donors n=20; for No of PG+ & th+ peptides per NTGA / No of PP & Th+ peptides per NTGA: Table 6; for No of PG+ & th+ peptides per NTGA: PG+ peptides recognized by T cells of grass allergic donors (n=20); for No of PP & Th+ peptides per NTGA: PP peptides recognized by T cells of grass allergic donors (n=20); for # Th+: Table 7, peptides per NTGA recognized by T cells of grass allergic donors (n=20)
From the text: Table 1 indicates for each of the 397 PG+ peptides in which non-grass pollen species a matching peptide with either less than 3, less than 2 or zero mismatches are found. The number of TG grass allergic donors (n=20) with an in vitro T cell response to the TG peptide sequence is also shown.
A set of 93 proteins from Timothy grass (TG) pollen and the assembly of 822 peptides (15 mers) predicted to promiscuously bind HLA class II molecules shown in Table 9 and the immune reactivity in allergic donors have been reported in PCT application WO 2013/119863. […] Immune reactivity was determined by the production of IL-5 or IFNg from cultured PBMCs of the allergic donors in response to stimulation with a peptide and IL-5 and IFNg were measured by ELISPOT as described in Oseroff C et al, 2010.
In short, T cell immune reactivity was determined using PBMCs isolated from study participants and stored in liquid nitrogen until further use. For experimental testing, PBMCs were thawed and expanded in vitro with TG pollen extract (50 μg/mL) or the peptide pool ([…]). The TG extract and peptide pools had each been previously titrated to determine optimal stimulation concentrations.
Cytokine production by cultured PBMCs in response to antigen stimulation was measured by ELISPOT. Cells (1×10^5 cells/well) were plated and incubated with peptide (10 μg/mL), the peptide pool (5 μg/mL), or the TG extract (50 μg/mL). Phytohaemagglutinin (10 μg/mL) and medium alone were used as positive and negative controls, respectively. Samples were considered to produce a cytokine if 100 spot-forming cells (SFCs)/10^6 PBMCs were detected, with P .05 and a stimulation index of 2 or more. Criteria for individual peptides were the same except that a minimum of 20 SFCs were required for a sample to be counted as positive.
Table 3 lists the 397 PG+ peptides and indicates for each non-grass pollen species whether a matching peptide with either less than 3, less than 2 or zero mismatches could be detected. The immune reactivity of the TG peptide was assessed as the number of TG grass allergic donors (n=20) having in vitro T cell response against the TG peptide.

| Molecule | NTGA's containing at least one T cell epitope, Th+ (Col 2) | No of PG+ & th+ peptides per NTGA | No of PP & Th+ peptides per NTGA | # Th+ |
| --- | --- | --- | --- | --- |
| B1 | 9 | 3 | 1 | 0 |
| B2 | 26 | 1 | 1 | 0 |
| B3 | 32 | 4 | 4 | 0 |
| B4 | 4 | 4 | 3 | 0 |
| B5 | 30 | 1 | 1 | 0 |
| B6 | 11 | 5 | 1 | 0 |
| B7 | 10 | 3 | 0 | 0 |
| B8 | 29 | 1 | 1 | 0 |
